Test results taken from paper PMC11310338.
Read-outs that look alike come from different tables or passages of the source.

T1: SCAF8-CID (human, UniProt Q9UPN6 1-139)
T1 sequence: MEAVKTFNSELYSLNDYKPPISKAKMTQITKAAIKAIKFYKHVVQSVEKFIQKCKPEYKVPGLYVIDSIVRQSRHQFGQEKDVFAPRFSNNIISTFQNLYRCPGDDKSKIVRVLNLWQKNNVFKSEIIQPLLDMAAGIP

T2: SCAF4-CID (human, UniProt O95104 1-139)
T2 sequence: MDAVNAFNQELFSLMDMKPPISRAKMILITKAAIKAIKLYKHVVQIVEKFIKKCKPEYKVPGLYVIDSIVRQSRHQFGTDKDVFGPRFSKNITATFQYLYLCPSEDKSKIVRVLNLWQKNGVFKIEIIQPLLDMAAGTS


What was measured:
SCAF8-CID [1] = molecular target: T1, SCAF8-CID; test: competition FP
SCAF4-CID [2] = molecular target: T2, SCAF4-CID; test: fluorescence polarization
SCAF4-CID [3] = molecular target: T2, SCAF4-CID; test: SPR
SCAF8-CID [4] = molecular target: T1, SCAF8-CID; test: SPR
SCAF4-CID [5] = molecular target: T2, SCAF4-CID; test: competition FP
SCAF4-CID [6] = molecular target: T2, SCAF4-CID; test: competition FP; remark: listed apart in the source
WDR5 [7] = molecular target: T3, WDR5 (human, UniProt P61964 1-334); test: competition FP
WDR5 [8] = molecular target: T3, WDR5; test: fluorescence polarization
WDR5 L240K = WDR5 L240K (human, UniProt P61964 1-334, L240K); test: fluorescence polarization
WDR5 [9] = molecular target: T3, WDR5; test: SPR

Row | Binder | IC50 (SCAF8-CID [1]) [µM] | Kd (SCAF4-CID [3]) [µM] | Kd (SCAF8-CID [4]) [µM] | IC50 (SCAF4-CID [6]) [µM] | also measured
1 | GTGGG (ssDNA) [SCAF4_LS (D2_5-nt)] | 1.96 ± 0.24 | 0.14 ± 0.0401 | 0.0764 ± 0.00733 | – | Kd (SCAF4-CID [2]): 0.189 ± 0.0401 µM; IC50 (SCAF4-CID [5]): 2.75 ± 0.682 µM
2 | TTAAAGGGGTGGGGAGTCAT (ssDNA) [SRiApt-3] | 0.291 ± 0.0197 | 0.0227 ± 0.001 | – | 0.285 ± 0.0266 | –
3 | GGGGTGGGGAG (ssDNA) [SRiApt-1 (F3_11-nt)] | 1.5 ± 0.69 | 0.0584 ± 0.0058 | 0.0563 ± 0.00742 | – | –
4 | GGTGGGGA (ssDNA) [F1_8-nt] | – | 0.0886 ± 0.0151 | – | 0.554 ± 0.106 | –
5 | GGGGGCTGGACCCCTCAACT (structured_DNA) [WMiApt-1] | – | – | – | – | IC50 (WDR5 [7]): 0.431 ± 0.134 µM; Kd (WDR5 [8]): 0.797 ± 0.0952 µM; binding result (WDR5 L240K): binds; Kd (WDR5 [9]): 0.138 ± 0.0867 µM
6 | CAGGTGGGTTC (ssDNA) [SRiApt-2 (F7_11-nt_B)] | 2.69 ± 1.43 | – | 0.0905 ± 0.0258 | 0.4 ± 0.143 | –
7 | GGACC (ssDNA) [WDR5 lead sequence (H4)] | – | – | – | – | IC50 (WDR5 [7]): 8.5 ± 4.25 µM
8 | TGGTGGGA (ssDNA) [D1_8-nt] | – | – | – | 1.27 ± 0.864 | –
9 | AGGTGGGT (ssDNA) [B2_8-nt] | – | 0.297 ± 0.0481 | – | 1.04 ± 0.419 | –
